T1: human ABCG2 (human, UniProt Q9UNQ0 1-655)
T1 sequence: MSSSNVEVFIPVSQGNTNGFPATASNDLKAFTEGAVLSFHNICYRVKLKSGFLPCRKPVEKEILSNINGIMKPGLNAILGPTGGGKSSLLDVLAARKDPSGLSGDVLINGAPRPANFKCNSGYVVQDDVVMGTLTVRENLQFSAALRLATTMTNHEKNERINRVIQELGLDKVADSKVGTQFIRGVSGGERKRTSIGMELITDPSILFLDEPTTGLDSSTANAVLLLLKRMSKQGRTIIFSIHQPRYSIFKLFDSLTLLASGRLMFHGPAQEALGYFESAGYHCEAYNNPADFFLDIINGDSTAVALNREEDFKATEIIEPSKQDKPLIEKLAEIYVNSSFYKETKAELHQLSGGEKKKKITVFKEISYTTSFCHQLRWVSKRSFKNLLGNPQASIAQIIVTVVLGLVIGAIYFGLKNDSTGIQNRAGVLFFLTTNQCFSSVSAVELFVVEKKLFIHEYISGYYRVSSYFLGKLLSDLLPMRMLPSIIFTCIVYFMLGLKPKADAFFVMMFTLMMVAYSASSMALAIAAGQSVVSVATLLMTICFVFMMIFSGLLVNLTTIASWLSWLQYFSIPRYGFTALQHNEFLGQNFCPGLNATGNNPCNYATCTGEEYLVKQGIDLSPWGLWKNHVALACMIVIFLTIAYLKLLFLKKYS

T2: cynomolgus ABCG2 (Macaca fascicularis) (Macaca fascicularis (cynomolgus), UniProt Q5MB13 1-654 (rhesus entry))
T2 construct: also called cABCG2
T2 sequence: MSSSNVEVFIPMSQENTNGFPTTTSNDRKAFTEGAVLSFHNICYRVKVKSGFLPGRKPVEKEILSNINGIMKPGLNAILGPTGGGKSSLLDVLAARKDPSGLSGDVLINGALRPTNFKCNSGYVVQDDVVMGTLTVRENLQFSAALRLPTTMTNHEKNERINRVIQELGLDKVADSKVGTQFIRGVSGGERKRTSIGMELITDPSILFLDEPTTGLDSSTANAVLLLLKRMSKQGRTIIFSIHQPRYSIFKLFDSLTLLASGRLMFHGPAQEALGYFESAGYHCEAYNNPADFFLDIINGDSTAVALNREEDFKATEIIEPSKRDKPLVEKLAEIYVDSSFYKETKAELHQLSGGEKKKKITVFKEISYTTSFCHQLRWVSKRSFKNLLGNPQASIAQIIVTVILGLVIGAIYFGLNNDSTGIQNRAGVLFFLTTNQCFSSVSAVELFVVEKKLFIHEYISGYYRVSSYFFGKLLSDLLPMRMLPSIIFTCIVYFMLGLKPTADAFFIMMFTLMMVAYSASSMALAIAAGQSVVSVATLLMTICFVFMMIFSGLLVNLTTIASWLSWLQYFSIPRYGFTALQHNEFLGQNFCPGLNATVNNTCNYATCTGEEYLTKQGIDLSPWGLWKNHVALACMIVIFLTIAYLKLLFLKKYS


Key:
human ABCG2 [1] = target: T1, human ABCG2; assay: cell-based or functional assay
human ABCG2 [2] = target: T1, human ABCG2; assay: flow cytometry, 293T cells overexpressing human ABCG2
Description: (§1) Cell Binding Assays. Antibody binding to cells was evaluated by flow cytometry. […] After incubating cells on ice for 30 min, cells were washed twice with flow cytometry buffer. Bound antibody was detected with PE-labeled F(ab′)₂ fragment goat anti-human IgG (Jackson ImmunoResearch) and evaluated on an Attune NxT flow cytometer.

[3] = target: T2, cynomolgus ABCG2 (Macaca fascicularis); assay: flow cytometry, 293T cells overexpressing cynomolgus ABCG2
Description: as §1

[4] = target: T2, cynomolgus ABCG2 (Macaca fascicularis); assay: flow cytometry on cells expressing cynomolgus ABCG2
Description: as §1

human ABCG2 [5] = target: T1, human ABCG2; assay: flow cytometry titration on 293T_ABCG2_OX cells; column Affinity for human ABCG2 (nM)
Description: as §1

[6] = target: T2, cynomolgus ABCG2 (Macaca fascicularis); assay: flow cytometry on cells expressing cynomolgus ABCG2; paragraph 395: non-significant binding = -
Description: as §1

binding result (human ABCG2 [2]) | binding result [3] | binding result [4] | Kd (human ABCG2 [5]) [nM] | binding result [6] | Binder | IC50 of topotecan cytotoxicity in the presence of the antibody (human ABCG2 [1]) [nM]
no binding | no binding |  |  |  | G2.640 (antibody, human IgG1, V domains shown, Raised in rats) VH: EVKLEESGPGLVQPSQTLSLTCTVSGFSLTSDGVSWVRQPPGKGLEWIAAISSGGSTYYNSALKSRLSISRDTSKSQVFLKMNSLQTEDTAIYFCTRDTYYGYNQIPFVYWGQGTLVTVSS VL: DIVIIQSPPSLSASLGDKVTISCQASQNIHRYIAWYQQKPGKAPRLLIRYTSTLESGTPSRFSGSGSGRDYSFSISNVESEDIASYYCLQYVNLWTFGGGTKLELK | 6.9
binds | binds |  |  |  | G2.760 rat (antibody, human IgG1, V domains shown) VH: EVQLVESGGGLVQPGRSMKLSCAASGFTFSKSDMAWVRQAPTKGLKWVASIRYDGGNTYYRDSVRGRFTISRDNAKSTLYLQMDSLRSEDTATYYCSTAKAAISTPSYYVLDAWGQGASVTVSS VL: DIGMTQSPTSMSKSVGDRVTMNCKASQNVGSNVDWFQQKTGQSPKLLIYKSSNRYTGVPARFTGSGSGTDFTFTISNMQAEDLAVYYCMQSNSYPPTFGGGTKLELK | 
 |  | binds | 16.8 |  | G2.629 rat (antibody, human IgG1, V domains shown, Variable regions cloned onto human IgG1 constant heavy chain and human kappa constant light chain) VH: EVQLVESGGGLVQPGRSLKLSCAASGFIFSRFYMAWVRQAPTKGLEWVAYINTGGGTTYYRDSVKGRFTISRDNAKTTLYLQMDSLRSEDTATYYCTTLAAPWNYVMDAWGQGASVTVSS VL: DVVMTQSPSLLSASVGDRVTLTCKGSQNINNFLAWYQQKLGEAPKLLTYKTNSLHTGIPSRFSGSGSGTDYTLTISSLHSEDLATYYCYQYNNGYTFGPGTKLELK | 2.21
 |  |  | 14.2 |  | G2.631 rat (antibody, human IgG1, V domains shown, also called G.631) VH: EVKLLESGGGLVQSGRSLKLSCAASGFIFSRFYMAWVRQAPRKGLEWVAYISNGAGSTYYRESVKGRFIISRDNAKSTLYLQMDSLRSEDTATYYCTTVAAPWNYVMDGWGQGASVTVSS VL: NIQITQSPSLLSASVGDRVTLSCKGSQNINNYLAWYQQKLGEAPKLLIYKTNSLHTGIPSRFSGSGSGTDYTLTISSLHSEDLATYYCYQYNNGYTFGAGTKLELK | 1.42
 |  | binds | 17 |  | G2.636 rat (antibody, human IgG1, V domains shown, Variable regions cloned onto human IgG1 constant heavy chain and human kappa constant light chain) VH: EVKLVESGGGLVQPGRSLKLSCAASGFTFSRFYMAWVRQAPTKGLEWVAHISHGGDTTYYRDSVKGRFTISRDNAKSTLFLQMDSLRSEDTATYYCTTSAAPWNYVMDGWGLGASVTVSS VL: DIVMTQSPSLLSASVGDRVTLTCKGSQNINNFLAWYQQKLGEAPKLLIYKTNSLHTGIPSRFSGSGSGTDYTLTISSLHSEDLATYYCYQYNNGYTFGAGTKLELK | 0.45
 |  | binds | 23 |  | G2.641 rat (antibody, human IgG1, V domains shown, Variable regions cloned onto human IgG1 constant heavy chain and human kappa constant light chain) VH: EVKLEESGGGLVQPGRSLKLSCAASGFTFSRFYMAWVRQAPTKGLEWVAHISHGGDTTYYRDSVKGRFTISRDNAKSTLFLQMDSLRSEDTATYYCTTSAAPWNYVMDGWGLGASVTVSS VL: DIQMTQSPSLLSASVGDRVTLTCKGSQNINNFLAWYQQKLGEAPKLLIYKTNSLHTGIPSRFSGSGSGTDYTLTISSLHSEDLATYYCYQYNNGYTFGAGTKLELK | 1.04
 |  |  | 59 | no binding | G2.247 mouse (antibody, human IgG1, V domains shown, Variable regions cloned onto human IgG1 constant heavy chain and human kappa constant light chain) VH: EVRLQQSGAELVKPGASVKLSCKTSGFTFSNSYISWLKQKPRQSLEWIAWIYAGTGGTNYNQKFTGKAQLTVDTSSSTAYMQLSSLTSEDSAIYYCATYGNFLYAMDNWGQGTSVTVSS VL: DIVMTQSPASLSASVGETVTITCRASGNIHNYLAWYQQKQGKSPQLLVYNTKTLADGVPSRFSGSGSGTQYSLKINSLQPEDFGSYYCQHFWSTPWTFGGGTKLEIK | 
 |  |  | 125 | no binding | G2.248 mouse (antibody, human IgG1, V domains shown, Variable regions cloned onto human IgG1 constant heavy chain and human kappa constant light chain) VH: QVQLQQPGAELVKPGASVKLSCKTSGFTFSNSYISWLKQKPRQSLEWIAWIYAGTGGTNYNQKFTGKAQLTVDTSSSTAYMQLSSLTSEDSAIYYCATYGNFLYAMDNWGQGTSVTVSS VL: DIQMKQSPASLSASVGETVTITCRASGNIHNYLAWYQQKQGKSPQLLVYNTKTLADGVPSRFSGSGSGTQYSLKINSLQPEDFGSYYCQHFWSTPWTFGGGTKLEIK | 
 |  |  | 347 | no binding | G2.252 mouse (antibody, human IgG1, V domains shown, Variable regions cloned onto human IgG1 constant heavy chain and human kappa constant light chain) VH: EVQLQQSGAELVKPGASVKLSCKTSGFTFSNSYISWLKQKPRQSLEWIAWIYAGTGGTNYNQKFTGKAQLTVDTSSSTAYMQLSSLTSEDSAIYYCATYGNFLYAMDYWGQGTTLTVSS VL: EIVLTQSPASLSASVGETVTITCRASGNIHNYLAWYQQKQGKSPQLLVYNAKTLADGVPSRFSGSGSGTQYSLKINSLQPEDFGSYYCQHFWSTPWTFGGGTKLEIK | 
 |  |  | 48 | no binding | G2.642 rat (antibody, human IgG1, V domains shown) VH: QIQLVQSGAELVKPGASVKLSCKTSGFTFSSNYISWLRQKPRQSLEWIAWIYSGTGGTYYNQKFTGKAQLTIDTSSNTAYMQLSSLTSEDSAIYYCARHVGLRYWYFDVWGAGTSVTVSS VL: DIVLTQSPASLTVSLGQRATISCRASESVDSNGNSFMHWYQQKPGQSPKVLIYRASNLESGVPARFSGSGSRTDFTLTINPVEADDVATYYCQQSNEDPWTFGGGTKLEIKR | 9.08
binds | binds |  |  |  | G2.748 rat (antibody, V domains shown) VH: QVSLKESGPGMLQPSKTLSLTCSFSGFSLSTSGMVVNWIRQPSGKSLEWLAAIDWDGDKYYNPSLKHRLTVSKDTSNTQVVLKITSVDTADTATYYCARSIAPYRGWFGYWGQGTLVTVSS VL: EIVLIQSPSSLPASLGERVTIICRASQDIGNNLNWYQQKPDGTIKPLIYFTSNFQSGVPSSFSGSRSGTDFSLTISSLEAEDFAMYYCQQDASLPWTFGGGTKLEIK | 
 |  |  | 5 |  | anti-ABCG2 antibody 5D3 (antibody, V domains shown, also called clone 5D3) VH: QVQLQESGPGLVKPSQSLSLTCTVTGFSITSDYAWNWIRQFPGKKLEWMGYINFDGGTTYNPSLRGRISITRDTSKNQFFLQLRSVTPEDTATYYCATFYGAKGTLDYWGQGTSVTVSS VL: DIVLTQSPSSFSVSLGDRVTISCKASGYILNRLAWYQQKPGNAPRLLISGATSLETGFPSRFSGTGSGKDYTLSISSLQTEDVGTYYCQQYWSTPWTFGGGTKLEIK | 0.3
 |  |  | 363 | no binding | G2.255 mouse (antibody, human IgG1, V domains shown, Variable regions cloned onto human IgG1 constant heavy chain and human kappa constant light chain) VH: EVMLVESGGALVKPGGSLKLSCAASGFTFSNNAMSWVRQTPETRLEWVATITGGGSYTYYPDSVKGRFTISRDNARNTLYLQMSSLRSEDTATYYCASPDGNYEGVLAYWGQGTLVTVSA VL: DIQMNQSPSSLSASLGDRVTISCSASQGISNYLNWYQQKPDGTIKLLIYYTSTLHSGVPSRFSGSGSGTDYSLTISNLEPEDIATYYCQHYSSLPWTFGGGTKLEIK | 
binds | binds |  |  |  | G2.643 mouse (antibody, human IgG1, V domains shown, Recombinant antibody) VH: VNLVESGPELVKPGTSVKISCKASGYRFTSYYVHWVKQRPGQGLEWIGWIFPGSDNTKYNEKFKGKATLTADTSSSTAYMQLSSLTSEDSAVYFCASIYYGYDGTLYFDYWGQGTSVTVSS VL: DIVMTQSHTFMSTSVGDRVSVTCKASQNVGNNVAWYQQKPGQSPNALIYSASYRYSGVPDRFTGSGSGTDFTLTISNVQSEDLAEYFCQQYDRYPLTFGGGTKLEIK | 
